The record followed here is publication PMC10907721.

Numbering of substitutions follows the chain as printed.

Assay in all cases: EMSA
Settings in all cases: EMSA: 20 mM Tris-HCl pH 7.5, 25 mM NaCl, 2 mM beta-mercaptoethanol, 10% glycerol; 50 nM nucleosome or DNA; 15 min room temperature; 6% TBE-acrylamide gel, 0.2X …
For orientation: Mobility shift assays separate free from complexed probe on a gel.

The target of data set [1] is T1, Hop1 CBR loop2+3 mutant R402A;K403A;K404A;K405A;K452A;R458A (Saccharomyces cerevisiae) (UniProt P20050).
T1 sequence: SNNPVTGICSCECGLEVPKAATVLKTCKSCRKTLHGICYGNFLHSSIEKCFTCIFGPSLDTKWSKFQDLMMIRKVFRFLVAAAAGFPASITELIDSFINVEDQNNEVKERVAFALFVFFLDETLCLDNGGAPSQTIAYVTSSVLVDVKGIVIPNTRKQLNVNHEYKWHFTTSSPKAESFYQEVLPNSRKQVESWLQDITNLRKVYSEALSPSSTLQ

For data set [2], the target named is T2, Hop1 CBR loop 1+2+3 mutant N362A;H365A;R402A;K403A;K404A;K405A;K452A;R458A (Saccharomyces cerevisiae) (UniProt P20050).
T2 sequence: T1 sequence with N41A, H44A

The target in data set [3] is T3, Hop1 CBR loop 3 mutant K452A;R458A (Saccharomyces cerevisiae) (UniProt P20050).
T3 sequence: T1 sequence with A81R, A82K, A83K, A84K

Data set [4] addresses T4, Hop1 CBR loop 1+2 mutant N362A;H365A;R402A;K403A;K404A;K405A (Saccharomyces cerevisiae) (UniProt P20050).
T4 sequence: T1 sequence with N41A, H44A, A131K, A137R

The target of data set [5] is T5, Hop1 CBR loop2 mutant R402A;K403A;K404A;K405A (Saccharomyces cerevisiae) (UniProt P20050).
T5 sequence: T1 sequence with A131K, A137R

Data set [6] addresses T6, Hop1 CBR loop 1+3 mutant N362A;H365A;K452A;R458A (Saccharomyces cerevisiae) (UniProt P20050).
T6 sequence: T1 sequence with N41A, H44A, A81R, A82K, A83K, A84K

Data set [7] has as its target T7, Hop1 CBR loop 1 mutant N362A;H365A (Saccharomyces cerevisiae) (UniProt P20050).
T7 sequence: T1 sequence with N41A, H44A, A81R, A82K, A83K, A84K, A131K, A137R

For orientation: Kd means the equilibrium constant for the complex coming apart. Read a low Kd as a tighter complex.

In the case of “TGGAGAATCCCGGTGCCGAGGCCGCTCAATTGGTCGTAGACAGCTCTAGCACCGCTTAAACGCACGTACGCGCTGTCCCCCGCGTTTTAACCGCCAAGGGGATTACTCCCTAGTCTCCAGGCACGTGTCAGATATATACATCCTGT (double strand) [Widom 601 mononucleosome (human histones)]”, the Kd in data set [1] is more than 50 µM; in data set [2], more than 50 µM; in data set [3], 50 µM; in data set [4] it was more than 50 µM; in data set [5] it was more than 50 µM; in data set [6], 13 µM. The Kd in data set [7] stood at 2 µM.
